Patent EP1506971A1 (The Regents of the University of California, dated 2005)

Molecular target: prokineticin receptor(s) of guinea pig ileal membrane / ileal smooth muscle (guinea pig)
Test: cell-based or functional assay

B1: chimeric prokineticin 21 (exons 1 and 2 of prokineticin 2, exon 3 of prokineticin 1) (ligand)
chain: AVITGACDKDSQCGGGMCCAVSIWVKSIRICTPMGKLGDSCHPLTRKVPFFRKRKHHTCPCLPNLLCSRFPDGRYRCSMDLKNINF
With B1 the “EC50 of ileal smooth muscle contraction, relative to prokineticin 1 or prokineticin 2” value was roughly 8 fold.
